The source of these data is US20240350546A1 (TEXAS A AND M UNIVERSITY SYSTEM, published 2024).

In this assay the target is T1, CD26 on Rv-CD26-transduced Jurkat T cells (human, UniProt P27487 1-766).
T1 construct: whole, on cells; also called membrane CD26
The assay is described as follows: ADA membrane binding efficiency from ADA activity left in medium after 24 h co-culture; Rv-ADA-CD3-293T/CD26-Jurkat T as maximum, 293T/Jurkat T without CD26 as background. On the procedure:
Next, we investigated the binding efficacy of ADA-CD3 on T cells. Jurkat-Dual (NF-KB &IRF/IFN), Jurkat-Dual transduced with Rv-CD26 (Jurkat-Dual-CD26), Jurkat-NFAT or Jurkat-NFAT transduced with Rv-CD26 (Jurkat-NFAT-CD26) reporter cell lines were co-cultured with Rv-ADA or Rv-ADA-CD3 (scFv) transduced 293 T cells for 24 hours. The cell culture medium was then used to measure ADA by ADA activity assay. ADA membrane binding efficiency was calculated using Rv-ADA-CD3-293T/CD26-Jurkat T as maximum and 293T/JurkatT W/O CD26 as background.

T1 sequence (P27487 whole entry): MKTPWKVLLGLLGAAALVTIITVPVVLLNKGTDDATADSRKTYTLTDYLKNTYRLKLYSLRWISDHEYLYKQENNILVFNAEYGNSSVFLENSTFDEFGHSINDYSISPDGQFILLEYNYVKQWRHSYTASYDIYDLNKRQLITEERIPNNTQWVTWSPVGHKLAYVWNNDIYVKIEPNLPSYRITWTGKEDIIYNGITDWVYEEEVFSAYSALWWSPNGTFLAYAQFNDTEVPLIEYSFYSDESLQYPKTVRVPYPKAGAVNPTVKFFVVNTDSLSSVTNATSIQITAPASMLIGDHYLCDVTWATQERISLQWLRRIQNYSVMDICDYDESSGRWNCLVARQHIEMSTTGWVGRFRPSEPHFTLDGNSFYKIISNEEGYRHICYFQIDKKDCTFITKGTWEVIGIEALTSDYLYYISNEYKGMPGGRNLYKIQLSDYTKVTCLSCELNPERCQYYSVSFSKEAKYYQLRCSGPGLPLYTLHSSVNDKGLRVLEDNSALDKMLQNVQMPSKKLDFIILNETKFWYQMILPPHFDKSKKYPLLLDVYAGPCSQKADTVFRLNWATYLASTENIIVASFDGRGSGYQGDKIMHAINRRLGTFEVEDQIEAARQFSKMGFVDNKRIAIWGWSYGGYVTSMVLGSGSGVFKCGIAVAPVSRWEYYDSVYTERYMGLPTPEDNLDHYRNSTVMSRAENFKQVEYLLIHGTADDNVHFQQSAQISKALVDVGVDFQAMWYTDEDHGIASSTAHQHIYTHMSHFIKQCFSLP

B1: secreted ADA (without CD3-scFv) (enzyme, human, UniProt P00813 1-363, looked up)
chain: MAQTPAFDKPKVELHVHLDGSIKPETILYYGRRRGIALPANTAEGLLNVIGMDKPLTLPDFLAKFDYYMPAIAGCREAIKRIAYEFVEMKAKEGVVYVEVRYSPHLLANSKVEPIPWNQAEGDLTPDEVVALVGQGLQEGERDFGVKARSILCCMRHQPNWSPKVVELCKKYQQQTVVAIDLAGDETIPGSSLLPGHVQAYQEAVKSGIHRTVHAGEVGSAEVVKEAVDILKTERLGHGYHTLEDQALYNRLRQENMHFEICPWSSYLTGAWKPDTEHAVIRLKNDQANYSLNTDDPLIFKSTLDTDYQMTKRDMGFTEEEFKRLNINAAKSSFLPEDEKRELLDLLYKAYGMPPSASAGQNL
notes: Secreted by Rv-ADA transduced 293 T cells in co-culture; also called ADA1; Rv-ADA
On to B1, for which the “ADA membrane binding efficiency (relative to secreted ADA-CD3)” value is 40%.
